Series [1] concerns HeLa Kyoto. In words: melting temperature (median over replicates), in situ; higher = more thermally stable.
The subject of series [2] is HeLa Kyoto. In words: thermal stability score vs G1/S (z-score of summed log2 fold changes over temperatures); higher = more thermally stable than in G1/S.
Series [3] relates to HeLa Kyoto. In words: solubility in G1/S (NP-40 vs SDS abundance) (log2 ratio); higher = more soluble. The conditions noted are these: cell cycle stage: G1/S.
Series [4] deals with HeLa Kyoto. In words: solubility change mitosis vs G1/S (difference of NP-40 vs SDS log2 ratios) (log2 ratio difference); higher = more soluble in mitosis.
The mark [5] stands for this setting: cell cycle stage: early G1 (4.5 h after nocodazole release).
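Throughout, for melting temperature (median over replicates), in situ: HeLa Kyoto cells synchronized by double thymidine or nocodazole block, proteins quantified by TMT10plex mass spectrometry, three independent biological replicates.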
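Throughout, for solubility change mitosis vs G1/S (difference of NP-40 vs SDS log2 ratios): synchronized HeLa Kyoto cells (double thymidine block for G1/S, nocodazole release for mitosis), protein amounts in NP-40 versus SDS lysates quantified by mass spectrometry, three biological replicates.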
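Throughout, for solubility in G1/S (NP-40 vs SDS abundance): HeLa Kyoto cells arrested at G1/S by double thymidine block, proteins quantified by TMT10plex mass spectrometry in mild NP-40 versus SDS extracts, three biological replicates.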
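Throughout, for thermal stability score vs G1/S (z-score of summed log2 fold changes over temperatures): synchronized HeLa Kyoto cells, proteins quantified by TMT10plex mass spectrometry, three biological replicates, mitosis taken 0.5 h after nocodazole release, G1/S directly after double thymidine block.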

Turning to “MGSKGVYQYHWQSHNVKHSGVDDMVLLSKITENSIVENLKKRYMDDYIFTYIGSVLISVNPFKQMPYFGEKEIEMYQGAAQYENPPHIYALADNMYRNMIIDRENQCVIISGESGAGKTVAAKYIMSYISRVSGGGTKVQHVKDIILQSNPLLEAFGNAKTVRNNNSSRFGKYFEIQFSPGGEPDGGKISNFLLEKSRVVMRNPGERSFHIFYQLIEGASAEQKHSLGITSMDYYYYLSLSGSYKVDDIDDRREFQETLHAMNVIGIFAEEQTLVLQIVAGILHLGNISFKEVGNYAAVESEEFLAFPAYLLGINQDRLKEKLTSRQMDSKWGGKSESIHVTLNVEQACYTRDALAKALHARVFDFLVDSINKAMEKDHEEYNIGVLDIYGFEIFQKNGFEQFCINFVNEKLQQIFIELTLKAEQEEYVQEGIRWTPIEYFNNKIVCDLIENKVNPPGIMSILDDVCATMHAVGEGADQTLLQKLQMQIGSHEHFNSWNQGFIIHHYAGKVSYDMDGFCERNRDVLFMDLIELMQSSELPFIKSLFPENLQADKKGRPTTAGSKIKKQANDLVSTLMKCTPHYIRCIKPNETKKPRDWEESRVKHQVEYLGLKENIRVRRAGYAYRRIFQKFLQRYAILTKATWPSWQGEEKQGVLHLLQSVNMDSDQFQLGRSKVFIKAPESLFLLEEMRERKYDGYARVIQKSWRKFVARKKYVQMREEASDLLLNKKERRRNSINRNFIGDYIGMEEHPELQQFVGKREKIDFADTVTKYDRRFKGVKRDLLLTPKCLYLIGREKVKQGPDKGLVKEVLKRKIEIERILSVSLSTMQDDIFILHEQEYDSLLESVFKTEFLSLLAKRYEEKTQKQLPLKFSNTLELKLKKENWGPWSAGGSRQVQFHQGFGDLAVLKPSNKVLQVSIGPGLPKNSRPTRRNTTQNTGYSSGTQNANYPVRAAPPPPGYHQNGVIRNQYVPYPHAPGSQRSNQKSLYTSMARPPLPRQQSTSSDRVSQTPESLDFLKVPDQGAAGVRRQTTSRPPPAGGRPKPQPKPKPQVPQCKALYAYDAQDTDELSFNANDIIDIIKEDPSGWWTGRLRGKQGLFPNNYVTKI [MYO1E]”, the melting temperature in series [1] (cell cycle stage: G1/S) was determined as 49.6 °C; in series [1] (cell cycle stage: mitosis), 49.5 °C. The thermal stability score in series [2] (setting [5]) was -0.0451; in series [2] (cell cycle stage: mitosis), 1.13. Moreover, in series [3], the “solubility in G1/S (log2)” value is -0.131. In addition, in series [4], the “solubility change mitosis (log2)” value is -0.207.

“MGSRASTLLRDEELEEIKKETGFSHSQITRLYSRFTSLDKGENGTLSREDFQRIPELAINPLGDRIINAFFPEGEDQVNFRGFMRTLAHFRPIEDNEKSKDVNGPEPLNSRSNKLHFAFRLYDLDKDEKISRDELLQVLRMMVGVNISDEQLGSIADRTIQEADQDGDSAISFTEFVKVLEKVDVEQKMSIRFLH [CHP1]”: the results for the melting temperature in series [1] (cell cycle stage: G1/S) and in series [1] (cell cycle stage: mitosis) were 51.8 °C and 52.6 °C, respectively. Moreover, the thermal stability score was -0.997 in series [2] (setting [5]) and 0.839 in series [2] (cell cycle stage: mitosis). Also, the “solubility in G1/S (log2)” value in series [3] was 0.256. Further, the “solubility change mitosis (log2)” value in series [4] is -0.016.

Regarding “MGSRDHLFKVLVVGDAAVGKTSLVQRYSQDSFSKHYKSTVGVDFALKVLQWSDYEIVRLQLWDIAGQERFTSMTRLYYRDASACVIMFDVTNATTFSNSQRWKQDLDSKLTLPNGEPVPCLLLANKCDLSPWAVSRDQIDRFSKENGFTGWTETSVKENKNINEAMRVLIEKMMRNSTEDIMSLSTQGDYINLQTKSSSWSCC [RAB29]”, the melting temperature amounted to 53 °C in series [1] (cell cycle stage: G1/S) and 52.9 °C in series [1] (cell cycle stage: mitosis). For the same sequence, the results for the thermal stability score in series [2] (setting [5]) and in series [2] (cell cycle stage: mitosis) were -0.342 and -0.372, respectively. For the same sequence, the “solubility in G1/S (log2)” value in series [3] amounted to 0.0397. Moreover, in series [4], the “solubility change mitosis (log2)” value is -0.119.

As for “MGSSKKHRGEKEAAGTTAAAGTGGATEQPPRHREHKKHKHRSGGSGGSGGERRKRSRERGGERGSGRRGAEAEARSSTHGRERSQAEPSERRVKREKRDDGYEAAASSKTSSGDASSLSIEETNKLRAKLGLKPLEVNAIKKEAGTKEEPVTADVINPMALRQREELREKLAAAKEKRLLNQKLGKIKTLGEDDPWLDDTAAWIERSRQLQKEKDLAEKRAKLLEEMDQEFGVSTLVEEEFGQRRQDLYSARDLQGLTVEHAIDSFREGETMILTLKDKGVLQEEEDVLVNVNLVDKERAEKNVELRKKKPDYLPYAEDESVDDLAQQKPRSILSKYDEELEGERPHSFRLEQGGTADGLRERELEEIRAKLRLQAQSLSTVGPRLASEYLTPEEMVTFKKTKRRVKKIRKKEKEVVVRADDLLPLGDQTQDGDFGSRLRGRGRRRVSEVEEEKEPVPQPLPSDDTRVENMDISDEEEGGAPPPGSPQVLEEDEAELELQKQLEKGRRLRQLQQLQQLRDSGEKVVEIVKKLESRQRGWEEDEDPERKGAIVFNATSEFCRTLGEIPTYGLAGNREEQEELMDFERDEERSANGGSESDGEENIGWSTVNLDEEKQQQDFSASSTTILDEEPIVNRGLAAALLLCQNKGLLETTVQKVARVKAPNKSLPSAVYCIEDKMAIDDKYSRREEYRGFTQDFKEKDGYKPDVKIEYVDETGRKLTPKEAFRQLSHRFHGKGSGKMKTERRMKKLDEEALLKKMSSSDTPLGTVALLQEKQKAQKTPYIVLSGSGKSMNANTITK [SART1]”, the melting temperature turned out to be 50.8 °C in series [1] (cell cycle stage: G1/S) and 51.6 °C in series [1] (cell cycle stage: mitosis). Besides, the thermal stability score stood at 0.893 in series [2] (setting [5]) and 3.51 in series [2] (cell cycle stage: mitosis). For the same sequence, the “solubility in G1/S (log2)” value in series [3] was -0.654. Further, the “solubility change mitosis (log2)” value in series [4] turned out to be 0.448.
